From patent US20150337042A1 (AbbVie / Abbott, published 2015)

How the values were obtained:
[1] = target: T1, EGFRvIII extracellular domain (EGFR (1-29)-G-(298-645)-LESRGPF-Myc-NMHTG-6His) (human, UniProt P00533 298-641); assay: SPR (Biacore), antibody captured via anti-human Fc, antigen injected
T1 construct: also called recombinant EGFRvIII; not shown: Myc tag
Experimental: (§1) Biacore analysis was performed using a Biacore T100 with a CM5 sensory chip, and test antibodies were captured via anti-human Fc antibodies that were amino coupled to the chip using a standard amine coupling kit according to manufacturer's instructions (GE healthcare). Briefly, a CM5 chip surface was activated with EDC/NHS. Goat anti-human Fc specific polyclonal antibody (Thermo Fisher Scientific Inc., Rockford, Ill.) was diluted to 25 μg/mL in 10 mM sodium acetate (pH 4.5) and injected over the activated surface to achieve immobilization. Unreacted moieties on the biosensor surface were blocked with ethanolamine. The Biacore T100 is a surface plasmon resonance based biosensor for detecting, characterizing and quantifying bimolecular interactions, including the interactions between an antibody and its antigen. Antigen was injected at 80 μL/minute for 3 minutes and dissociation was followed for 15 minutes.

[2] = target: T2, truncated wild type EGFR 1-525 (EGFR1 (1-525)-SRGPF-Myc-NMHTG-6His) (human, UniProt P00533 25-525); assay: as above
T2 construct: the signal peptide is left out; not shown: Myc tag
Experimental: as §1

EGFRvIII on U87MG cells = target: T3, EGFRvIII on U87MG cells (human, UniProt P00533 298-1210); assay: competition FACS on U87MG de2-7 cells expressing EGFRvIII; competitor Ab1-FITC at 100 nM
T3 construct: also called de2-7 EGFR

[3] = target: T1, EGFRvIII extracellular domain (EGFR …); assay: SPR (Biacore T100), antibody captured on anti-human Fc, antigen in solution
Experimental: as §1

[4] = target: T2, truncated wild type EGFR 1-525 (EGFR1 …); assay: as above
Experimental: as §1

[5] = target: T4, wild type human EGFR on cells (A431, NHEK, SCC-15, H292) (human, UniProt P00533 25-1210); assay: FACS binding to normal human epidermal keratinocytes (NHEK), AlexaFluor 488 secondary antibody
T4 construct: Endogenous receptor of human cell lines and keratinocytes said to express wild type EGFR; also called wild type EGFR; wtEGFR
Experimental: NHEK cells express wild type EGFR.
Cells were harvested when approximately 80% confluent using trypsin, neutralized and washed once in PBS/1% FBS (FACS buffer) then resuspended at 2.5×10⁶ cells/mL in FACS buffer. 100 μL of cells/well were added to a round bottom 96-well plate. 10 μL of a 10x concentration of Ab (final concentrations are listed in the Figures) was added and plate was incubated at 4° C. for one hour. Wells were washed twice with FACS buffer then resuspended in 50 μL of secondary Ab (AlexaFluor 488) diluted in FACS buffer. The plate was incubated at 4° C. for one hour then washed twice with FACS buffer. Cells were then resuspended in 100 μL of PBS/1% formaldehyde and analyzed on a Becton Dickinson LSRII flow cytometer. Data was analyzed using WinList flow cytometry analysis software.

B1: Antibody N (AbN) (antibody, V domains shown)
VH: EVQLQESGPGLVKPSQTLSLTCTVSGYSIGRDFAWNWIRQPPGKGLEWMGYISYSGNTRYQPSLKSRITISRDTSKNQFFLKLNSVTAADTATYYCVTASRGFPYWGQGTLVTVSS
VL: DIQMTQSPSSMSVSVGDRVTITCHSSQDITYNVGWLQQKPGKSFKGLIYHGSNLDHGVPSRFSGSGSGTDYTLTISSLQPEDFATYYCVQYDDFPWTFGGGTKLEIK
notes: Full length IgG1
- KD ratio (Ab1/variant Ab) [1]: 12.5
- Kd [1]: 0.75 nM
- koff [1]: 0.000103 s⁻¹
- kon [1]: 137000 M⁻¹ s⁻¹
- KD ratio (Ab1/variant Ab) [2]: 642
- Kd [2]: 3.5 nM
- koff [2]: 1.71e-05 s⁻¹
- kon [2]: 4840 M⁻¹ s⁻¹

B2: Antibody A (AbA) (antibody, human IgG1, kappa, V domains shown)
VH: EVQLQESGPGLVKPSQTLSLTCTVSGYSISRDFAWNWIRQPPGKGLEWMGYISYNGNTRYQPSLKSRITISRDTSKNQFFLKLNSVTAADTATYYCVTASRGFPYWGQGTLVTVSS
VL: DIQMTQSPSSMSVSVGDRVTITCHSSQDINSNIGWLQQKPGKSFKGLIYHGTNLDDGVPSRFSGSGSGTDYTLTISSLQPEDFATYYCVQYAQFPWTFGGGTKLEIKR
notes: IgG1
- IC50 (read off the curve) (EGFRvIII on U87MG cells): ~30 nM
- KD ratio (Ab1/variant Ab) [1]: 4.1
- koff [1]: 0.000173 s⁻¹
- kon [1]: 76100 M⁻¹ s⁻¹
- KD ratio (Ab1/variant Ab) [2]: 10.1
- koff [2]: 0.000731 s⁻¹
- kon [2]: 3260 M⁻¹ s⁻¹
- Kd [3]: 2.3 nM
- fold increase in affinity versus Ab1 [3]: 4 fold
- Kd [4]: 220 nM
- fold improvement in KD over Ab1 [4]: 10 fold
- EC50 (read off the curve) [5]: ~50 nM

B3: Antibody D (AbD) (antibody, V domains shown)
VH: EVQLQESGPGLVKPSQTLSLTCTVSGYSISSDFAWNWIRQPPGKGLEWMGYISYSGNTRYQPSLKSRITISRDTSKNQFFLKLNSVTAADTATYYCVTAGRGFPYWGQGTLVTVSS
VL: DIQMTQSPSSMSVSVGDRVTITCHSSQDINSNLGWLQQKPGKSFKGLIYHGANLHDGVPSRFSGSGSGTDYTLTISSLQPEDFATYYCVQYAEFPWTFGGGTKLEIK
notes: Full length IgG1
- KD ratio (Ab1/variant Ab) [1]: 1.5
- Kd [1]: 6.1 nM
- koff [1]: 0.000866 s⁻¹
- kon [1]: 141000 M⁻¹ s⁻¹
- KD ratio (Ab1/variant Ab) [2]: 4.1
- Kd [2]: 550 nM
- koff [2]: 0.00322 s⁻¹
- kon [2]: 5820 M⁻¹ s⁻¹

B4: Antibody K (AbK) (antibody, V domains shown)
VH: EVQLQESGPGLVKPSQTLSLTCTVSGYSISRDFAWNWIRQPPGKGLEWMGYISYNGNTRYQPSLKSRITISRDTSKNQFFLKLNSVTAADTATYYCVTASRGFPWWGQGTLVTVSS
VL: DIQMTQSPSSMSVSVGDRVTITCHSSQDITYNVGWLQQKPGKSFKGLIYHGSNLDHGVPSRFSGSGSGTDYTLTISSLQPEDFATYYCVQYDDFPWTFGGGTKLEIK
notes: Full length IgG1
- IC50 (read off the curve) (EGFRvIII on U87MG cells): ~30 nM
- KD ratio (Ab1/variant Ab) [1]: 15.8
- Kd [1]: 0.6 nM
- koff [1]: 7.75e-05 s⁻¹
- kon [1]: 130000 M⁻¹ s⁻¹
- KD ratio (Ab1/variant Ab) [2]: 1370
- koff [2]: 7.92e-06 s⁻¹
- kon [2]: 4780 M⁻¹ s⁻¹
- Kd [4]: 1.7 nM
- fold increase over the KD of Ab1 [4]: > 1300 fold
- EC50 (read off the curve) [5]: ~40 nM

B5: Antibody E (AbE) (antibody, V domains shown)
VH: EVQLQESGPGLVKPSQTLSLTCTVSGYSISSDFAWNWIRQPPGKGLEWMGYISYSGNTRYQPSLKSRITISRDTSKNQFFLKLNSVTAADTATYYCVTAGRGFPYWGQGTLVTVSS
VL: DIQMTQSPSSMSVSVGDRVTITCHSSQDINSNLGWLQQKPGKSFKGLIYHGSNLDHGVPSRFSGSGSGTDYTLTISSLQPEDFATYYCVQYDQFPWTFGGGTKLEIK
notes: Full length IgG1
- KD ratio (Ab1/variant Ab) [1]: 1.2
- Kd [1]: 8.2 nM
- koff [1]: 0.00158 s⁻¹
- kon [1]: 193000 M⁻¹ s⁻¹
- KD ratio (Ab1/variant Ab) [2]: 3.8
- koff [2]: 0.00367 s⁻¹
- kon [2]: 6170 M⁻¹ s⁻¹
- Kd [4]: 590 nM
- fold increase in affinity over the KD of Ab1 [4]: ~4 fold

B6: Antibody M (AbM) (antibody, V domains shown)
VH: EVQLQESGPGLVKPSQTLSLTCTVSGYSIGRDFAWNWIRQPPGKGLEWMGYISYNGNTRYQPSLKSRITISRDTSKNQFFLKLNSVTAADTATYYCVTASRGFPYWGQGTLVTVSS
VL: DIQMTQSPSSMSVSVGDRVTITCHSSQDITYNVGWLQQKPGKSFKGLIYHGSNLDHGVPSRFSGSGSGTDYTLTISSLQPEDFATYYCVQYDDFPWTFGGGTKLEIK
notes: Full length IgG1
- IC50 (read off the curve) (EGFRvIII on U87MG cells): ~30 nM
- KD ratio (Ab1/variant Ab) [1]: 14.9
- Kd [1]: 0.63 nM
- koff [1]: 0.000118 s⁻¹
- kon [1]: 187000 M⁻¹ s⁻¹
- KD ratio (Ab1/variant Ab) [2]: 387
- Kd [2]: 5.9 nM
- koff [2]: 2.26e-05 s⁻¹
- kon [2]: 3840 M⁻¹ s⁻¹
- EC50 (read off the curve) [5]: ~40 nM

B7: Antibody L (AbL) (antibody, V domains shown)
VH: EVQLQESGPGLVKPSQTLSLTCTVSGYSIGKDFAWNWIRQPPGKGLEWMGYISYNGNTRYQPSLKSRITISRDTSKNQFFLKLNSVTAADTATYYCVTASRGLPYWGQGTLVTVSS
VL: DIQMTQSPSSMSVSVGDRVTITCHSSQDITYNVGWLQQKPGKSFKGLIYHGSNLDHGVPSRFSGSGSGTDYTLTISSLQPEDFATYYCVQYDDFPWTFGGGTKLEIK
notes: Full length IgG1
- KD ratio (Ab1/variant Ab) [1]: 27.1
- Kd [1]: 0.35 nM
- koff [1]: 6.95e-05 s⁻¹
- kon [1]: 200000 M⁻¹ s⁻¹
- KD ratio (Ab1/variant Ab) [2]: 722
- Kd [2]: 3.1 nM
- koff [2]: 1.78e-05 s⁻¹
- kon [2]: 5650 M⁻¹ s⁻¹

B8: Antibody F (AbF) (antibody, V domains shown)
VH: EVQLQESGPGLVKPSQTLSLTCTVSGYSISRDFAWNWIRQPPGKGLEWMGYISYSGNTRYQPSLKSRITISRDTSKNQFFLKLNSVTAADTATYYCVTASRGFPYWGQGTLVTVSS
VL: DIQMTQSPSSMSVSVGDRVTITCHSSQDINSNIGWLQQKPGKSFKGLIYHGTNLDDGVPSRFSGSGSGTDYTLTISSLQPEDFATYYCVQYAQFPWTFGGGTKLEIK
notes: Full length IgG1
- KD ratio (Ab1/variant Ab) [1]: 2.4
- Kd [1]: 3.9 nM
- koff [1]: 0.000324 s⁻¹
- kon [1]: 83600 M⁻¹ s⁻¹
- KD ratio (Ab1/variant Ab) [2]: 5.4
- Kd [2]: 420 nM
- koff [2]: 0.000831 s⁻¹
- kon [2]: 1980 M⁻¹ s⁻¹

B9: Antibody J (AbJ) (antibody, V domains shown)
VH: EVQLQESGPGLVKPSQTLSLTCTVSGYSIGKDFAWNWIRQPPGKGLEWMGYISYSGNTRYQPSLKSRITISRDTSKNQFFLKLNSVTAADTATYYCVTASRGLPYWGQGTLVTVSS
VL: DIQMTQSPSSMSVSVGDRVTITCHSSQDITYNIGWLQQKPGKSFKGLIYHGANLDDGVPSRFSGSGSGTDYTLTISSLQPEDFATYYCVQYDEFPWTFGGGTKLEIK
notes: Full length IgG1
- KD ratio (Ab1/variant Ab) [1]: 31.8
- Kd [1]: 0.3 nM
- koff [1]: 9.4e-05 s⁻¹
- kon [1]: 318000 M⁻¹ s⁻¹
- KD ratio (Ab1/variant Ab) [2]: 60.5
- Kd [2]: 38 nM
- koff [2]: 8.27e-05 s⁻¹
- kon [2]: 2200 M⁻¹ s⁻¹

B10: Antibody H (AbH) (antibody, V domains shown)
VH: EVQLQESGPGLVKPSQTLSLTCTVSGYSIGKDFAWNWIRQPPGKGLEWMGYISYNGNTRYQPSLKSRITISRDTSKNQFFLKLNSVTAADTATYYCVTASRGLPYWGQGTLVTVSS
VL: DIQMTQSPSSMSVSVGDRVTITCHSSQDITYNIGWLQQKPGKSFKGLIYHGANLDDGVPSRFSGSGSGTDYTLTISSLQPEDFATYYCVQYDEFPWTFGGGTKLEIK
notes: Full length IgG1
- KD ratio (Ab1/variant Ab) [1]: 63.1
- Kd [1]: 0.15 nM
- koff [1]: 4.89e-05 s⁻¹
- kon [1]: 327000 M⁻¹ s⁻¹
- KD ratio (Ab1/variant Ab) [2]: 441
- Kd [2]: 5.2 nM
- koff [2]: 4.07e-05 s⁻¹
- kon [2]: 7900 M⁻¹ s⁻¹

B11: Antibody C (AbC) (antibody, V domains shown)
VH: EVQLQESGPGLVKPSQTLSLTCTVSGYSISSDFAWNWIRQPPGKGLEWMGYISYSGNTRYQPSLKSRITISRDTSKNQFFLKLNSVTAADTATYYCVTAGRGFPYWGQGTLVTVSS
VL: DIQMTQSPSSMSVSVGDRVTITCHSSQDINSNIGWLQQKPGKSFKGLIYHGTNLDDGVPSRFSGSGSGTDYTLTISSLQPEDFATYYCVQYEQFPWTFGGGTKLEIK
notes: Full length IgG1
- KD ratio (Ab1/variant Ab) [1]: 2.6
- Kd [1]: 3.6 nM
- koff [1]: 0.00079 s⁻¹
- kon [1]: 220000 M⁻¹ s⁻¹

B12: Antibody B (AbB) (antibody, V domains shown)
VH: EVQLQESGPGLVKPSQTLSLTCTVSGYSISNDFAWNWIRQPPGKGLEWMGYISYKGNTRYQPSLKSRITISRDTSKNQFFLKLNSVTAADTATYYCVTASRGFPWWGQGTLVTVSS
VL: DIQMTQSPSSMSVSVGDRVTITCHSSQDINSNIGWLQQKPGKSFKGLIYHGTNLDDGVPSRFSGSGSGTDYTLTISSLQPEDFATYYCVQYAQFPWTFGGGTKLEIK
notes: Converted from scFv into a full length IgG1 antibody
- KD ratio (Ab1/variant Ab) [1]: 4.2
- Kd [1]: 2.2 nM
- koff [1]: 0.000173 s⁻¹
- kon [1]: 78300 M⁻¹ s⁻¹
- KD ratio (Ab1/variant Ab) [2]: 10.5
- Kd [2]: 220 nM
- koff [2]: 0.00119 s⁻¹
- kon [2]: 5460 M⁻¹ s⁻¹
